Experimental findings from paper PMC2649783 are described below.

For this series, the target named is HUαβ (Escherichia coli (overexpressed in …, UniProt P0ACF0;P0ACF4 1-90;1-90)). The experiment in a line: ITC. (In general: In ITC the heat of successive injections is recorded.)
Sequence of HUαβ (Escherichia coli (P0ACF0 whole entry, chain 1 of 2): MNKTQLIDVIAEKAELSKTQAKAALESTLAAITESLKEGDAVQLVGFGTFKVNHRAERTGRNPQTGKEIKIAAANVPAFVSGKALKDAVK
Sequence of HUαβ (Escherichia coli (P0ACF4 whole entry, chain 2 of 2): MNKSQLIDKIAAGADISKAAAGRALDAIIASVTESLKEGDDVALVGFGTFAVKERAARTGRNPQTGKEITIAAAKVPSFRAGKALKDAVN

B1: 38 bp DNA (dsDNA)
DNA 1: CGGTCAGTTCAAGCCCTTCTAAGTTTGTAGACACCAGC
DNA 2: GCTGGTGTCTACAAACTTAGAAGGGCTTGAACTGACCG
For the molecule B1, the binding result is reported as “binds”.
